B1: RANTES (regulated on activation normal T expressed and secreted protein) (ligand, UniProt P13501 24-91, looked up)
chain: SPYSSDTTPCCFAYIARPLPRAHIKEYFYTSGKCSNPAVVFVTRKNRQVCANPEKKWVREYINSLEMS
B2: Purified human calcium-replete thrombospondin-1 (TSP1) from thrombin-activated platelets (ligand)
chain: not shown
notes: mature; also called purified platelet TSP1

Assays:
[1] = biological target: B2; assay: solid phase binding, 125I-RANTES on immobilized TSP1; saturatable, biphasic
Procedure: (§1) Washed wells were blocked with 0.5% bovine serum albumin ("BSA"), then incubated in triplicate with soluble radiolabeled ligand for 2.5 hours at 37° C. After extensive washing in 50 mM Tris pH 7.5, 150 mM NaCl, 0.5% Tween-20 (TBS-Tween), bound radioactivity was quantified by gamma counter. […] Specific binding was determined as quenchable in the presence of excess unlabeled ligand, above background binding to BSA-coated wells.

[2] = biological target: T1, CHO cell-expressed soluble recombinant CD4 (UniProt P01730 26-394); assay: solid phase binding, 125I-CD4 on immobilized TSP1
T1 construct: also called soluble CD4
Procedure: as §1

Binder: B1
- EC50 [1]: ~330 nM

Binder: B2
- binding result [2]: binds
